Results from the nanobody polyreactivity screen of Harvey et al. (2022).

Experiment: yeast display, Sf9 membrane polyspecificity reagent, FACS + sequencing; frameworks hold sequencing errors
Method in brief: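 A synthetic nanobody library was expressed on Saccharomyces cerevisiae BJ5465 by galactose induction for 36–48 hours. The library was stained for 1 hour at 4 °C with 10% biotinylated, detergent-solubilized Sf9 membrane reagent and enriched with streptavidin microbeads before FACS. Low and high (top ~1%) gates were set on anti-HA fluorescence for expression and streptavidin fluorescence for reagent binding, and each polyreactivity label reflects the gate of origin.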

## QVQLVESGGGLVQAGGSLRLSCAASGIIFDYYAMGWYRPAPGKERELVAAINSGSGSTYYADSVKGRFTISRDNAKNTVYLQMNSLKPEDTAVYYCAADGLSATLTWYSYDYWGQGTQVTVSS
  polyreactivity (PSR sort gate): low polyreactivity

## QVQLVESGGGLVQAGGSLRLSCAASGIIFEGYAMGWYRQAPGKERELVATITSGGITYYADSVKGRFTISRDNAKNTVYLQMNSLKPEDTAVYYCAADNEDIGSEDSDYGYDYWGQGTQVTVSS
  polyreactivity (PSR sort gate): low polyreactivity

## QVQLVESGGGLVQAGGSLRLSCAASGIIFERNAMGWYRQAPGKERELVAAITTSGDSTYYADSVKGRFTISRDNAKNTVYLQMNSLKPEDTAVYYCAVEGVIWSFWPYEYWGQGTQVTVSS
  polyreactivity (PSR sort gate): high polyreactivity

## QVQLVESGGGLVQAGGSLRLSCAASGIIFEYYAMGWYRQAPGKERELVASITSSDGSTYYADSVKGRFTISRDNAKNTVYLQMNSLKPEDTAVYYCAAAGDYVVPISSTAGFGGDYWGQGTQVTVSS
  polyreactivity (PSR sort gate): low polyreactivity

## QVQLVESGGGLVQAGGSLRLSCAASGIIFFDYAMGWYRQAPGKERELVAAISSGGGNTYYADSVKGRFTISRDNAKNTVYLQMNSLNPEDTAVDYCAAEPYIYGEQGAYDYWGQGTQVTVSS
  polyreactivity (PSR sort gate): low polyreactivity

## QVQLVESGGGLVQAGGSLRLSCAASGIIFFPYAMGWYRQAPGKEREFVAAITSRGGSTYYADSVKGRFTISRDNAKNTVYLQMNSLKPEDTAVYYCAADHLGRARGPWRYNYWGQGTQVTVSS
  polyreactivity (PSR sort gate): low polyreactivity

## QVQLVESGGGLVQAGGSLRLSCAASGIIFFPYPMGWYRQAPGKERELVASINISDSSTYYADSVKGRFTISRDTAKNTVDLQMNSLKPEDTAVYYCAADNRGDSWYWHGYWGQGTQVSVSS
  polyreactivity (PSR sort gate): low polyreactivity

## QVQLVESGGGLVQAGGSLRLSCAASGIIFFWNAMGWYRQAPGKERELVAAISSGGSTFADSVKGRFTISRDNAKNTVYLQMNSLKPEDTAVYYCAARFYHGYRPYIAIYGYGYWGQGTQVTVSS
  polyreactivity (PSR sort gate): low polyreactivity

## QVQLVESGGGLVQAGGSLRLSCAASGIIFGAYAMGLYRQAPGQERVFVAAISRSGSRTYYADSVKGRFTISRDTAKNTVYLQMNSLKPEDTAVYYCAAESPVLYYWGQGTQVTVSS
  polyreactivity (PSR sort gate): high polyreactivity

## QVQLVESGGGLVQAGGSLRLSCAASGIIFGGNVMGWYRQAPGKERELVAAITWSGGTTYYADSVKGRFTISRDNAKNTVFLQMNSLKPEDTAVYYCAADRVYLDYVAGTYDYWGQGTQVTVSS
  polyreactivity (PSR sort gate): low polyreactivity

## QVQLVESGGGLVQAGGSLRLSCAASGIIFGGYAMGWYGQAPGKERELVASITWGGGSTYYADSVKGRFTISRDNAKNTVYLQMNSLKPEDTAVYYCNKRGYPGSDWGQGTQVTVSS
  polyreactivity (PSR sort gate): low polyreactivity

## QVQLVESGGGLVQAGGSLRLSCAASGIIFGGYAMGWYRQAPGKERELVAAITRSGGSTYYADSVKGRFTISRDNAKNTVYLQMNSLKPEDTAVYYCAAVPYRKHSYPFRLNYWGQGTQVTVSS
  polyreactivity (PSR sort gate): high polyreactivity

## QVQLVESGGGLVQAGGSLRLSCAASGIIFGGYDMGWYRQATGKERELVAAISWSGGSTYYADSVKGRFTISRDTAKNTVYLQMNSLKPEDTAVYYCAAAYYAPTRDYYYWGQGTQVTVSS
  polyreactivity (PSR sort gate): low polyreactivity

## QVQLVESGGGLVQAGGSLRLSCAASGIIFGPNAMGWYRQAPGKERELVAGIDWSTDSTYYADSVKGRFTLSRDNAKNTVYLQMNSLKPEDTAVYYCAVAENKRFGSVGYYYWGQGTQVTVSS
  polyreactivity (PSR sort gate): low polyreactivity

## QVQLVESGGGLVQAGGSLRLSCAASGIIFGQNALGWYRQAPGKEREVVAAITISGGSTYYSDSVKGRFTISRDNAKNTVYLQMNSLKPEDTAVYYCAAEWYYVYIAPYDYWGQGTQVTVSS
  polyreactivity (PSR sort gate): low polyreactivity

## QVQLVESGGGLVQAGGSLRLSCAASGIIFGRYAMGWYRQATGTVRELVAASTRSGGRTYYADTVKGRFTISRDYAKNTVFVQMNSLKPEDTAVYYCSADASGHSYDYWGQGTQVTVSS
  polyreactivity (PSR sort gate): high polyreactivity

## QVQLVESGGGLVQAGGSLRLSCAASGIIFGRYAMGWYRQSPGKERELVAAISSRGGSTYYADSVKGRFTISRDNAKNTVYLQMNSLKPEDTAVYYCAATWGYLRGSTNYYYWGQGTQVTVSS
  polyreactivity (PSR sort gate): high polyreactivity

## QVQLVESGGGLVQAGGSLRLSCAASGIIFGSNAMGWYRQAPGKERELVAAISYSGASTYYADSVKGRFTISRDNAKNTVYLQMNSLKPEDTAVYYCATYSRWDYGYWGQGTQVTVSS
  polyreactivity (PSR sort gate): high polyreactivity

## QVQLVESGGGLVQAGGSLRLSCAASGIIFGSNTMGWYRQAPGKERELVAAITSSDGSTHYADSVKGRFTISRDNAKNTVYLQMKSLKPEDTAVYYCAARKVTYGHSYGYDYWGQGTQVTLSS
  polyreactivity (PSR sort gate): low polyreactivity

## QVQLVESGGGLVQAGGSLRLSCAASGIIFGSYAIGWYRQAPGKERELVAGISRRGDSTYYADSVKGRFTISRDNAKNTVYLQMNSLKPEDTAVYYCAARWFRRSTYLYYYWGQGTQVTVSS
  polyreactivity (PSR sort gate): high polyreactivity

## QVQLVESGGGLVQAGGSLRLSCAASGIIFGSYAMGWSRQAPGKERELVAAISYSGSTFYADSVKGRFTISRDNAKNTVYLQMNSLKPEDTAVYYCNADRYAKWYRKYRPNDYWGQGTQVTVSS
  polyreactivity (PSR sort gate): high polyreactivity

## QVQLVESGGGLVQAGGSLRLSCAASGIIFGTNAMGWSRQAPGKERELVAAITWSGGTYYADSVKGRFTISRDNAKNTVYLQMNSLKPEDTAVYYCAADGSGYYDWYYYWGQGTQVTVSS
  polyreactivity (PSR sort gate): low polyreactivity

## QVQLVESGGGLVQAGGSLRLSCAASGIIFGTNAMGWYRQAPGKERELVAAIRVTGGSTYYADSVKGRFTISRDNAKNTVYLQMNSLKPEDTAVYYCARDSWFVVDMDYWGQGTQVTVSS
  polyreactivity (PSR sort gate): low polyreactivity

## QVQLVESGGGLVQAGGSLRLSCAASGIIFGTYAMGWYRQAPGKERELVAAINWSGGSTYYADSVKGRFTISRDNAKNTVYLQMNSLKPEDTAVYYCAADGNEYDYWGQGTQVTVSS
  polyreactivity (PSR sort gate): low polyreactivity

## QVQLVESGGGLVQAGGSLRLSCAASGIIFGVYAMGWYRQAPGKERELVAAIDGNGSSTYYADSVKGRFISSRDNAKTTVYLQMNSLKPEDTAVYYCAADLVWVSTSYYYWGQGTQVTVSS
  polyreactivity (PSR sort gate): low polyreactivity

## QVQLVESGGGLVQAGGSLRLSCAASGIIFGVYAMGWYRQAPGKERELVADISSGDSTNYADSVKGRFTISRANAKNTVYLQMNSLKPEDTAVYYCAAEFGRMYWRYGYWGQGTQVTVSS
  polyreactivity (PSR sort gate): low polyreactivity

## QVQLVESGGGLVQAGGSLRLSCAASGIIFGYNVMGWYRQAPGKERELVAAIRYSGGSKYYADSVKGRFTISRDNAKNTVYLQMNSLKPEDTAVYYCAKAYRAAPRESYDYWGQGTQVTVSS
  polyreactivity (PSR sort gate): high polyreactivity

## QVQLVESGGGLVQAGGSLRLSCAASGIIFGYYAMAWYRQAPGTERELVAAITSGASTDYADSVKGRFTISRDNAKNNVYLQMNSLKPEDTAVYYCNADTSASTYTFPFDYWGQGTQVTVSS
  polyreactivity (PSR sort gate): low polyreactivity

## QVQLVESGGGLVQAGGSLRLSCAASGIIFGYYAMGRYRQAPGKERELVAAITWSGGSTYYADSVKGRFTISRDNAKNTVYLQMNSLKPEDTAVYYCAAGDPTLLNESFDYWGQGTQVTVSS
  polyreactivity (PSR sort gate): low polyreactivity

## QVQLVESGGGLVQAGGSLRLSCAASGIIFGYYAMGWKRQAPGKERELVAAIDWTGGNTYYADSVKGRFTSSRDNAKNTVYLQMNSLKPEDTAVYYWAADSNSQEDYWGQGTQVTVSS
  polyreactivity (PSR sort gate): low polyreactivity

## QVQLVESGGGLVQAGGSLRLSCAASGIIFGYYAMGWYRQAPGKERELVAAISRSGGRTYYADSVKGRFTISRDNAKNTVYLQMNSLKPEDTAVYYCATVTNSKRGFDYWGQGTQVTVLS
  polyreactivity (PSR sort gate): high polyreactivity

## QVQLVESGGGLVQAGGSLRLSCAASGIIFGYYSMGWYRQAPGKERDLVAAITWSGGSTYYADSVKGRFTISRDYAKNTVYLQMNSLKPEDTAVYYCNALGWYGDYDYWGQGTQVTVSS
  polyreactivity (PSR sort gate): low polyreactivity
